Experimental findings from PMC5104516, “TRIM28 regulates the nuclear accumulation and toxicity of both alpha-synuclein and tau” (eLife, 2016) are described below.

One assay deals with α-Syn:nYFP (UniProt P37840 1-140). As to the kind of experiment: split reporter (BiFC, NanoBiT); split-YFP; stable cell lines with α-Syn or tau fused to the N-terminal portion of YFP (bait), transfected with 250 ng prey plasmid with the C-terminal portion of YFP; fluorescence by flow cytometry at 48 hr and microscopy up to 72 hr. The conditions noted are these: partners not purified. On the technique in general: In flow cytometry, cells or beads pass a laser one at a time.

In the next assay the target is T1, tau:nYFP (UniProt P10636-8 1-441).
T1 construct: microtubule associated protein tau; Plasmids and their construction are in Supplementary file 2; also called nYFP-tau; tau fused to an N-terminal moiety of YFP
Described as above. The following applies: partners not purified.

T1 sequence (P10636 other isoform, or with tags, fused parts or gaps): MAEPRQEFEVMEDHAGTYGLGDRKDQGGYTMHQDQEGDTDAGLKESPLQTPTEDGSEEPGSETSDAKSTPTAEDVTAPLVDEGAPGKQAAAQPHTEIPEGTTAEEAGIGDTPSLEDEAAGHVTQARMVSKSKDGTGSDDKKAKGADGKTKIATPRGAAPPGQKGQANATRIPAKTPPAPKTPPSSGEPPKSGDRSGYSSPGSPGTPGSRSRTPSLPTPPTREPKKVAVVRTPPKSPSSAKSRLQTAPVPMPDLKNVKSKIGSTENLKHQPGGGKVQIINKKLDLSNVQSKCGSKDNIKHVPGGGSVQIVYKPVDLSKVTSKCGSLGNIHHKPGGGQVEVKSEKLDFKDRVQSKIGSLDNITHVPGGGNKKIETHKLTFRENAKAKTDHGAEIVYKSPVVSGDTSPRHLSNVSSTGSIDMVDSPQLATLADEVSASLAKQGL

B1: TRIM28:cYFP (natural protein, human, UniProt Q13263 1-835, looked up)
chain: MAASAAAASAAAASAASGSPGPGEGSAGGEKRSTAPSAAASASASAAASSPAGGGAEALELLEHCGVCRERLRPEREPRLLPCLHSACSACLGPAAPAAANSSGDGGAAGDGTVVDCPVCKQQCFSKDIVENYFMRDSGSKAATDAQDANQCCTSCEDNAPATSYCVECSEPLCETCVEAHQRVKYTKDHTVRSTGPAKSRDGERTVYCNVHKHEPLVLFCESCDTLTCRDCQLNAHKDHQYQFLEDAVRNQRKLLASLVKRLGDKHATLQKSTKEVRSSIRQVSDVQKRVQVDVKMAILQIMKELNKRGRVLVNDAQKVTEGQQERLERQHWTMTKIQKHQEHILRFASWALESDNNTALLLSKKLIYFQLHRALKMIVDPVEPHGEMKFQWDLNAWTKSAEAFGKIVAERPGTNSTGPAPMAPPRAPGPLSKQGSGSSQPMEVQEGYGFGSGDDPYSSAEPHVSGVKRSRSGEGEVSGLMRKVPRVSLERLDLDLTADSQPPVFKVFPGSTTEDYNLIVIERGAAAAATGQPGTAPAGTPGAPPLAGMAIVKEEETEAAIGAPPTATEGPETKPVLMALAEGPGAEGPRLASPSGSTSSGLEVVAPEGTSAPGGGPGTLDDSATICRVCQKPGDLVMCNQCEFCFHLDCHLPALQDVPGEEWSCSLCHVLPDLKEEDGSLSLDGADSTGVVAKLSPANQRKCERVLLALFCHEPCRPLHQLATDSTFSLDQPGGTLDLTLIRARLQEKLSPPYSSPQEFAQDVGRMFKQFNKLTEDKADVQSIIGLQRFFETRMNEAFGDTKFSAVLVEPPPMSLPGAGLSSQELSGGPGDGP
notes: Tripartite motif-containing 28 (TRIM28); Plasmids and their construction are in Supplementary file 2; also called TRIM28 fused to a C-terminal moiety of YFP; Prey
Consider B1, for which the “fold lower BiFC signal than with tau as prey” value with α-Syn:nYFP and with tau:nYFP was around 8 fold in each case.
